Experimental data: US20240218071A1 (ANHUI BIOX VISION BIOLOGICAL TECHNOLOGY, published 2024)

How the values were obtained:
[1] = biological target: T1, P17-Fc fusion protein (human CD40 extracellular domain fused to human IgG1 Fc) (human, UniProt P25942 21-193, limits assumed); test: ELISA of Fab on P17-Fc
T1 construct: CD40 ECD at the N-terminus of the human IgG1 Fc; expressed in CHO-K cells; also called CD40 ECD-Fc fusion protein; CD40 antigen P17-Fc; not shown: human IgG1 Fc fragment

[2] = biological target: T2, cynomolgus monkey CD40 expressed on the cell surface (cynomolgus monkey, UniProt G7PG38 21-278); test: flow cytometry on CHO-K-cynoCD40 cells, APC anti-human F(ab')2 secondary antibody
T2 construct: also called CHO-K-cynoCD40 cells
T2 sequence (G7PG38 entry or part of it limits assumed): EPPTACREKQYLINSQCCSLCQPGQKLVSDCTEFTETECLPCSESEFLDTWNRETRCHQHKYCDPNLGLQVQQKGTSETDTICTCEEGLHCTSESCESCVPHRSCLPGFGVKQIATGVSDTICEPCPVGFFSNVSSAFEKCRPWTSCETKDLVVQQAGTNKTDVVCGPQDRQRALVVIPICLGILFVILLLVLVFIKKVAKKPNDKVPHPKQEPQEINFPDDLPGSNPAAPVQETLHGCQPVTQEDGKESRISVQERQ
Protocol: The CHO-K-huCD40 cells or CHO-K-cynoCD40 cells were seeded into a 96-well plate at 1.0×10⁵ cells/well, and diluted C8 anti-CD40 Fab candidate molecules were added. […] Then, the cells were washed, and the binding of the C8 anti-CD40 Fab candidate molecules to CD40 molecules expressed on the cell surface was detected by flow cytometry (Beckman Coulter).

T1 sequence (P25942 21-193 limits assumed): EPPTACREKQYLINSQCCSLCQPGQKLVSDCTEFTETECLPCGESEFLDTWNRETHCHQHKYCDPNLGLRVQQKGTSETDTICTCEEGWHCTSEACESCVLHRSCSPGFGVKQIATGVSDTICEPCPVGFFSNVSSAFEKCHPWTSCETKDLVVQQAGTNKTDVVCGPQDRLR

B1: C8 clone anti-CD40 Fab molecule (Fab, V domains shown)
VH: EVQLLESGGGLVRPGGSLRLSCAASGFTFGSYEMNWVRQAPGKGLEWVSYISSSGETTDYADSVKGRFTVSRDNSKNLLYLQMNSLRAEDTAVYYCARDVFFFDSSGDNGAYGMDVWGQGTMVTVSS
VL: DIQLTQSPSSLTASVGDRVTITCRSSQGIRSSLAWYQQKPGKPPKLLIYGASSLEGGVPSRFSGSGSGTDFTLTISSLQPEDFATYYCQQLNSFPSTFGQGTKLEIK
notes: Expressed as a Fab fragment in CHO-K cells; also called C8 Fab; C8 clone Fab
In the case of B1, the EC50 [1] is reported as roughly 0.476 µg/mL and the binding result [2] is reported as “binds”.
